Consider four molecules from article PMC8922245, “The Structure of the Arabidopsis PEX4-PEX22 Peroxin Complex—Insights Into Ubiquitination at the Peroxisomal Membrane” (Frontiers in Cell and Developmental Biology, 2022).

As a reminder, the Kd is a measure of binding affinity in units of concentration.

The target of assay [1] is Pex22 (Saccharomyces cerevisiae) (UniProt P39718). The following applies: cited from earlier work.
For assay [2], the target named is T1, Arabidopsis thaliana PEX22 residues 111-283 (soluble PEX4-interacting domain) (Arabidopsis thaliana, UniProt Q9LSX7 111-283).
T1 construct: two N-terminal residues left from the PreScission cleavage site (LEVLFQ|GP); Made on one chain with His6-MBP-PEX4 and separated from it by PreScission cleavage; also called At PEX22; source: purified (Ni-NTA), released with PreScission protease
T1 sequence: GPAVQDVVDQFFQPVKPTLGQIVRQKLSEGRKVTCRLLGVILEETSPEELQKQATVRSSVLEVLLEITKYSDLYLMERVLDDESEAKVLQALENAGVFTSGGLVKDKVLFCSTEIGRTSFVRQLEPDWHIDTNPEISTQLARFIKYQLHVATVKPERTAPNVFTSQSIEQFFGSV
Description: crystal structure; PEX4-PEX22^111-283 complex from the cleaved fusion, 20 mg/mL in 20 mM Tris pH 7.5, 200 mM NaCl, 1 mM DTT; sitting drop vapor diffusion at 20°C; 100 mM NaCl, 100 mM Bis-Tris Propane pH 9.0, 25% (w/v) PEG 1,500. The following applies: both partners purified.

Assay [3] has as its target T1, Arabidopsis thaliana PEX22 residues …. Description: pull-down; purified fusion cut with PreScission protease; His6-MBP-PEX4 or His6-MBP-pex4^P123L held on Ni-NTA resin, 1 h at 4°C; washed with buffer A (25 mM HEPES pH 8, 300 mM NaCl, 5% glycerol, 1 mM TCEP), eluted with buffer B (500 mM imidazole); SDS-PAGE and Coomassie staining. The following applies: both partners purified.

Sequence of Pex22 (Saccharomyces cerevisiae) (P39718 whole entry, the tested form may be a part): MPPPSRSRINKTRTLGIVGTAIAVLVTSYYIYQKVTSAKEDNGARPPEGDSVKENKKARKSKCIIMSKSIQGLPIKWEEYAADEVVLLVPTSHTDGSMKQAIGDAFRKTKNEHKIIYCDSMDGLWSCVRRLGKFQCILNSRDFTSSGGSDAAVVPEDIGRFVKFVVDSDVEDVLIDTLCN

Pex4 (from UniProt P29340): the Kd in assay [1] is 2 nM.

B1: Arabidopsis thaliana PEX4 (full-length, His6-MBP removed) (enzyme)
chain: SMQASRARLFKEYKEVQREKVADPDIQLICDDTNIFKWTALIKGPSETPYEGGVFQLAFSVPEPYPLQPPQVRFLTKIFHPNVHFKTGEICLDILKNAWSPAWTLQSVCRAIIALMAHPEPDSPLNCDSGNLLRSGDVRGFNSMAQMYTRLAAMPKKGLEVLFQ
notes: one residue left after the TEV protease cleavage site (ENLYFQ|S); residue 0 at the N-terminus; PEX4 (UBC21), Arabidopsis thaliana, At5g25760, full-length without stop codon, residues 1-157; six C-terminal residues left from the PreScission cleavage site (LEVLFQ|GP); residues 158-163; Model in PDB 6XOD holds residues 1-154; residue 0, 155-157 and 158-163 were disordered; also called At PEX4; …
For the molecule B1, the binding result in assay [2] is on record as “binds”.

B2: His6-MBP-PEX4 (Arabidopsis thaliana PEX4, full-length, after PreScission cleavage of the fusion) (enzyme)
chain: MQASRARLFKEYKEVQREKVADPDIQLICDDTNIFKWTALIKGPSETPYEGGVFQLAFSVPEPYPLQPPQVRFLTKIFHPNVHFKTGEICLDILKNAWSPAWTLQSVCRAIIALMAHPEPDSPLNCDSGNLLRSGDVRGFNSMAQMYTRLAAMPKKGLEVLFQ
notes: PEX4 (UBC21), Arabidopsis thaliana, At5g25760, full-length without stop codon; C-terminal residues left from the PreScission cleavage site (LEVLFQ|GP); His6-MBP is joined to PEX4 by a linker with an uncut TEV site (ENLYFQ|S); source: purified (Ni-NTA), cleaved with PreScission protease only; not shown: His6, N-terminal, kept; MBP, N-terminal, kept
In the case of B2, the binding result in assay [3] is on record as “binds”.

B3: His6-MBP-pex4^P123L (pex4-1 protein, after PreScission cleavage of the fusion) (enzyme, Arabidopsis thaliana)
chain: MQASRARLFKEYKEVQREKVADPDIQLICDDTNIFKWTALIKGPSETPYEGGVFQLAFSVPEPYPLQPPQVRFLTKIFHPNVHFKTGEICLDILKNAWSPAWTLQSVCRAIIALMAHPEPDSLLNCDSGNLLRSGDVRGFNSMAQMYTRLAAMPKKGLEVLFQ
notes: PEX4 (UBC21), Arabidopsis thaliana, At5g25760, full-length without stop codon, with the pex4-1 missense change P123L; C-terminal residues left from the PreScission cleavage site (LEVLFQ|GP); pex4-1 is a missense allele isolated in a forward-genetic screen; His6-MBP is joined by a linker with an uncut TEV site (ENLYFQ|S); source: purified (Ni-NTA), cleaved with PreScission protease only; not …
Take B3: the binding result in assay [3] is on record as “binds”.
